Measurements from patent US20110135647A1 (ONCOTHERAPY SCIENCE, published 2011).
Each block holds one binder with its values, some of them ahead of it.

How the values were obtained:
[1] = target: T1, HA-tagged A7322 (A7322-HA) (human, UniProt Q5TH69 1-2177); assay: co-immunoprecipitation from co-transfected COS-7 cells, anti-FLAG IP / anti-HA blot and the reverse
T1 construct: Expressed in COS-7 cells for the ERα co-immunoprecipitation; not shown: HA tag

[2] = target: T2, myc-tagged p97 (p97/VCP-myc-6×His) (human, UniProt P55072 1-806); assay: co-immunoprecipitation with HA-tag antibody from co-transfected cells
T2 construct: Expressed in COS-7 cells; also called myc-p97; p97/VCP-myc-His; not shown: C-terminal myc-6×His tag of pcDNA3.1-myc-His
T2 sequence (P55072 whole entry): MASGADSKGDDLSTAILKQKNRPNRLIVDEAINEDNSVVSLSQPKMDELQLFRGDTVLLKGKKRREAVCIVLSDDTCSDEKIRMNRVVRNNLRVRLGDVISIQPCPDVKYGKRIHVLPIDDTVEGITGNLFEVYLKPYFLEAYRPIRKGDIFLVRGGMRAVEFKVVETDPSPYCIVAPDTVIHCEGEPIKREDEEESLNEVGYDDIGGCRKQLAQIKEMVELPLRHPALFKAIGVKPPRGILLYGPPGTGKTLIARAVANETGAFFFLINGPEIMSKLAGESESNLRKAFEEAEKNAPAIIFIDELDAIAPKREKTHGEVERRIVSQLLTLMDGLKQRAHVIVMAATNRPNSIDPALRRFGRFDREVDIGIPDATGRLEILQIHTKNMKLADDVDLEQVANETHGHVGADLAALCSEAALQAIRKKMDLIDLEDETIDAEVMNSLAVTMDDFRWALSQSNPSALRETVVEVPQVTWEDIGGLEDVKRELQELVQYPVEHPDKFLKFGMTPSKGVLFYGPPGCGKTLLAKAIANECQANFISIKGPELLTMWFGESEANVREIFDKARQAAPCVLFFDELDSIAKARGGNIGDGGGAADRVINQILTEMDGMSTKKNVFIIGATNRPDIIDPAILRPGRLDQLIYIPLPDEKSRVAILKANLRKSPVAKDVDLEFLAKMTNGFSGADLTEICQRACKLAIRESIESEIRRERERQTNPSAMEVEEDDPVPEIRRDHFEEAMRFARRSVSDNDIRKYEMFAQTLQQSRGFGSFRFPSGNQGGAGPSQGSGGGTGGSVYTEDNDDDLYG

[3] = target: T3, GST-tagged PP1α (GST-PP1α) (human, UniProt P62136 1-330); assay: anti-HA immunoprecipitation from co-transfected COS-7 cells, anti-GST blot
T3 construct: also called GST-fused PP1α; not shown: glutathione S-transferase (GST) tag of the pCAGGS-nGST vector, N-terminal
T3 sequence (P62136 whole entry, the tested form may be a part): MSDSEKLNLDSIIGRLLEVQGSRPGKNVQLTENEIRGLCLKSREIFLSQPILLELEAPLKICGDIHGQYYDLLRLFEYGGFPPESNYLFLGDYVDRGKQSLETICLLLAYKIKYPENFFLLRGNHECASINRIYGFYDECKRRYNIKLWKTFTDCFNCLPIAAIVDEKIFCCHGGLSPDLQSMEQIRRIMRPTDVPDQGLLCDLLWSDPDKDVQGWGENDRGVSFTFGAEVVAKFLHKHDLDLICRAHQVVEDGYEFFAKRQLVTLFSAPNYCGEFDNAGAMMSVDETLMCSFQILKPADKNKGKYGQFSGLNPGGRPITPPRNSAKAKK

T1 sequence (Q5TH69 whole entry): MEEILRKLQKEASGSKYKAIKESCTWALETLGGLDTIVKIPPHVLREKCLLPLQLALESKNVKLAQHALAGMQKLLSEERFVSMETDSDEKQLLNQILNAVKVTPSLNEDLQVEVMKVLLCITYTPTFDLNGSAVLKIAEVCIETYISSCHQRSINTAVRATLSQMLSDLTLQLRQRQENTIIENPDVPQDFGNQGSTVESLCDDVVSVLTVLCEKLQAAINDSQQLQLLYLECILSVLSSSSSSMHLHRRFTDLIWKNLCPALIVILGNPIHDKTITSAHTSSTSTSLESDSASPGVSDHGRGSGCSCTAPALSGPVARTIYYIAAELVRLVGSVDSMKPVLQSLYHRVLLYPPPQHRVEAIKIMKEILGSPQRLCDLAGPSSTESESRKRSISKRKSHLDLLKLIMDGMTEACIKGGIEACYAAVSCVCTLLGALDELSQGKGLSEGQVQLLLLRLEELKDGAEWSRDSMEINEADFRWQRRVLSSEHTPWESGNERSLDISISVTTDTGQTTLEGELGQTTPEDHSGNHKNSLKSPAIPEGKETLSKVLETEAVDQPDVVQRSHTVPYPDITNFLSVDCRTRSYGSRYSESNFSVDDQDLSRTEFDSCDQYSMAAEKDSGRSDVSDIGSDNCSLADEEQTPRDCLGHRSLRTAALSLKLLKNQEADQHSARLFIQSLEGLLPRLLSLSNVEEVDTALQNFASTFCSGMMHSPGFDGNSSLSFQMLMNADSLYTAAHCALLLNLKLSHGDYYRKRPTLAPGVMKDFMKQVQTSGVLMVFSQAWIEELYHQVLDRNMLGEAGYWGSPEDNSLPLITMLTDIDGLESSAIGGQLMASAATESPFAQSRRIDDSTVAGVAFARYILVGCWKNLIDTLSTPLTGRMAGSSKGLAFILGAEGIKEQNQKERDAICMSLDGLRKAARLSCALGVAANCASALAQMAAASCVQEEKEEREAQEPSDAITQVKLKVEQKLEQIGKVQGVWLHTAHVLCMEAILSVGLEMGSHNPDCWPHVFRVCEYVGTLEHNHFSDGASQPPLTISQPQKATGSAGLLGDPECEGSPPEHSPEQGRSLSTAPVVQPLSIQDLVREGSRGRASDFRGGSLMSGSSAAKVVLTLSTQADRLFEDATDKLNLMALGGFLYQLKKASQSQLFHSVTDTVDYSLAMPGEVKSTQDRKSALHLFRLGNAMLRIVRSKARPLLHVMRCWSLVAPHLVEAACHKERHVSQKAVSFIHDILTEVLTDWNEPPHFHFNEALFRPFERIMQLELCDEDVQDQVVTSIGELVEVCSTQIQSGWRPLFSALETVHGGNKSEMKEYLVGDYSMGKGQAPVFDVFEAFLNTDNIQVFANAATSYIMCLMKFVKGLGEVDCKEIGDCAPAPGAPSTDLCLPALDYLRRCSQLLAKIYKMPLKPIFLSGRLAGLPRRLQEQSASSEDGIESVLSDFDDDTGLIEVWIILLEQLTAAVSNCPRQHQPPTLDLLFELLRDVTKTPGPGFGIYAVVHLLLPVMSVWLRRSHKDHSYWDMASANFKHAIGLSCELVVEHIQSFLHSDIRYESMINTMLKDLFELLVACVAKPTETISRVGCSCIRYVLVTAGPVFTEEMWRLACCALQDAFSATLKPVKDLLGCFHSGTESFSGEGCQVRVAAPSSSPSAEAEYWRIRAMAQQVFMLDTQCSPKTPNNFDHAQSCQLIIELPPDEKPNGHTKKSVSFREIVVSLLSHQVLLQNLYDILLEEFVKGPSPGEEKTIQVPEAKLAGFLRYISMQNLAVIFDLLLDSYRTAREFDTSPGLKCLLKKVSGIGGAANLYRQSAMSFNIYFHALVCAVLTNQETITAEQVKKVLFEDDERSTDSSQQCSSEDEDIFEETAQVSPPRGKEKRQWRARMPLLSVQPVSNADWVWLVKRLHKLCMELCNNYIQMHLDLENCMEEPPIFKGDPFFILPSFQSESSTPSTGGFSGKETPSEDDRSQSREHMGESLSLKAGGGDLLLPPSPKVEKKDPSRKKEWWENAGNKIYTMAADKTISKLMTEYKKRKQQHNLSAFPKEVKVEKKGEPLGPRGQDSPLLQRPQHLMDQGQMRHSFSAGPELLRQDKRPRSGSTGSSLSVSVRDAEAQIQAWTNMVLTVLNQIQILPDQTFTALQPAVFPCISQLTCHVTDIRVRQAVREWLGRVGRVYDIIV

- binding result [1]: no binding
B1: FLAG-tagged ERα (ERα-FLAG) (receptor, UniProt P03372 1-595, looked up)
chain: MTMTLHTKASGMALLHQIQGNELEPLNRPQLKIPLERPLGEVYLDSSKPAVYNYPEGAAYEFNAAAAANAQVYGQTGLPYGPGSEAAAFGSNGLGGFPPLNSVSPSPLMLLHPPPQLSPFLQPHGQQVPYYLENEPSGYTVREAGPPAFYRPNSDNRRQGGRERLASTNDKGSMAMESAKETRYCAVCNDYASGYHYGVWSCEGCKAFFKRSIQGHNDYMCPATNQCTIDKNRRKSCQACRLRKCYEVGMMKGGIRKDRRGGRMLKHKRQRDDGEGRGEVGSAGDMRAANLWPSPLMIKRSKKNSLALSLTADQMVSALLDAEPPILYSEYDPTRPFSEASMMGLLTNLADRELVHMINWAKRVPGFVDLTLHDQVHLLECAWLEILMIGLVWRSMEHPGKLLFAPNLLLDRNQGKCVEGMVEIFDMLLATSSRFRMMNLQGEEFVCLKSIILLNSGVYTFLSSTLKSLEEKDHIHRVLDKITDTLIHLMAKAGLTLQQQHQRLAQLLLILSHIRHMSNKGMEHLYSMKCKNVVPLYDLLLEMLDAHRLHAPTSRGGASVEETDQSHLATAGSTSSHSLQKYYITGEAEGFPATV
notes: Expressed in COS-7 cells; also called FLAG-ERα; estrogen receptor α; not shown: FLAG tag

- binding result [2]: no binding
- binding result [3]: binds
B2: HA-tagged PBK/TOPK (HA-PBK/TOPK), wild type (enzyme)
chain: MEGISNFKTPSKLSEKKKSVLCSTPTINIPASPFMQKLGFGTGVNVYLMKRSPRGLSHSPWAVKKINPICNDHYRSVYQKRLMDEAKILKSLHHPNIVGYRAFTEANDGSLCLAMEYGGEKSLNDLIEERYKASQDPFPAAIILKVALNMARGLKYLHQEKKLLHGDIKSSNVVIKGDFETIKICDVGVSLPLDENMTVTDPEACYIGTEPWKPKEAVEENGVITDKADIFAFGLTLWEMMTLSIPHINLSNDDDDEDKTFDESDFDDEAYYAALGTRPPINMEELDESYQKVIELFSVCTNEDPKDRPSAAHIVEALETDV
notes: Expressed in COS-7 or T47D cells; also called HA-tagged TOPK; WT; not shown: N-terminal HA tag (pCAGGSnHA)
